Results from patent US20060014712A1 (CeMines, Inc., published 2006).
Read-outs that look alike come from different tables or passages of the source.

Legend:
Test in all cases: cell-based or functional assay
[1] = molecular target: T1, MITF (Homo sapiens (Human), UniProt O75030-9)
[2] = molecular target: T2, SOX10 (Homo sapiens (Human), UniProt P56693)
[3] = molecular target: T3, STAT3 (Homo sapiens (Human), UniProt P40763)
[4] = molecular target: T1, MITF; remark: listed apart in the source
[5] = molecular target: T2, SOX10; remark: listed apart in the source
[6] = molecular target: T3, STAT3; remark: listed apart in the source

Row | Binder | Apoptosis 7 d/% in SK-MEL-28 [1] | Apoptosis 7 d/% in SK-MEL-28 [2] | Apoptosis 7 d/% in SK-MEL-28 [3] | Apoptosis 7 d/% in SK-MEL-28 [5] | further results
1 | Scr-int1M (peptide) peptide: TTGGSSPQGLEAKRPKKRKVRRRQLMLEPYALDMSRIRVLSESLGLATQSG | 0% | 0% | 0% |  | 
2 | RPKKRKVRRRQLMLEPYALDMSRIRVLSESLGLATQSG [Scr-int1] |  |  |  | 0% | Apoptosis 7 d/% in SK-MEL-28 [4]: 0%; Apoptosis 7 d/% in SK-MEL-28 [6]: 0%
3 | TTGGSSPQGLEAKRPKKRKVRRRVKRPMNAFMVWAQAARRKLADQY [SOX10-int1M] |  | 32% |  |  | 
4 | TTGGSSPQGLEAKRPKKRKVRRRFNINDRIKELGTLIPKSNDPDMRWN [MITF-int1M] | 20% |  |  |  | 
5 | RPKKRKVRRRVKRPMNAFMVWAQAARRKLADQY [SOX10-int1] |  |  |  | 55% | 
6 | STAT3-int1M (peptide) peptide: TTGGSSPQGLEAKRPKKRKVRRRKMQQLEQMLTALDQMRRSIVSELAGLLS |  |  | 12% |  | 
